Like-named read-outs stand apart in the source and are kept apart here. Peptide text beside a SMILES is read from it. * marks the point of attachment. Cbz = O=C(OCc1ccccc1)*; CH2F = FC*
Key:
293T cells [1] = assay: Apoptosis assay, CIDE transfection; format: cell-based, human
Description: Apoptosis Assays, fluorescence staining of nuclear DNA and DNA fragmentation assay: 5×10^5 293T cells were co-transfected with 0.2 μg of pcDNA3-β-gal plus each expression plasmid in triplicate by the calcium phosphate method as reported [N. Inohara et al, “CLARP, a death effector domain-containing protein interacts with caspase-8 and regulates apoptosis,” Proc. Natl. Acad. Sci. USA 94:10717-10722 (1997a)].
MCF7 were cotransfected with vector control or CIDE-A and β-galactosidase-expressing reporter construct by Lipofectamine (Gibco BRL) according to the manufacturer's instructions. In some experiments, 20 μM zVAD-fmk (benzyloxycarbonyl-Val-Ala-Asp-(OMe)-fluoromethylketone), zFA-fmk (benzyloxycarbonyl-Phe-Ala-(OMc)-fluoromethylketone) and zDEVD-fmk (benzyloxycarbonyl-Asp-Glu-Val-Asp-(OMe)-fluoromethylketone) were added into medium at 8 hr after transfection. zFA-fmk, zVAD-fmk and zDEVD-fmk were obtained from Enzyme Systems. At 24 hours after transfection, cells were fixed, stained for β-galactosidase as described [N. Inohara et al., “CLARP, a death effector domain-containing protein interacts with caspase-8 and regulates apoptosis,” Proc. Natl. Acad. Sci. USA 94:10717-10722 (1997a)] and assayed for morphological features of apoptosis. At least 300 hundred blue-staining cells were counted. Statistical significance was determined by one-way ANOVA followed by Student-Neuman-Keuls post-doc comparisons.
Nuclear staining with acridine-orange was performed as described [N. Inohara et al., “harakiri, a novel regulator of cell death, encodes a protein that activates apoptosis and interacts selectively with survival-promoting proteins Bcl-2 and Bcl-XL.,” EMBO J. 16:1686-1694 (1997b)]. Genomic DNA was extracted and analyzed for DNA fragmentation as described [X. Liu et al., “Apaf-1, a human protein homologous to C. elegans CED-4, participates in cytochrome c-dependent activation of caspase-3,” Cell 90:405-413 (1997)].

293T cells [2] = assay: Apoptosis assay, RICK co-transfection; format: cell-based, human; conditions: for caspase-8-induced apoptosis potentiated by RICK: 293T cells, zVAD-fmk 20 μM added at 8 hrs after transfection, p35 by expression plasmid
Description: The total amount of transfected plasmid DNA was adjusted with pcDNA3 plasmid to be the same within individual experiments. After transfection, 293T cells were harvested at different times and lysed with 0.2% NP-40 isotonic lysis buffer [N. Inohara et al., Proc. Natl. Acad. Sci. U.S.A. 94:10717-10722 (1997)]. The B lymphocyte-derived BJAB cell line was stably trasnfected by electroporation with pcDNA3 or pcDNA3-Flag-RICK (K38M). After selection with […] (1 μg/ml), bulk cell lines were tested for RICK protein expression with anti-Flag antibody by flow cytometric analysis. For immunoprecipitation, 1 mg of soluble protein was incubated with 10 μg/ml of polyclonal anti-Flag, anti-myc or control antibody overnight at 4° C. and tagged proteins were immunoprecipitated with Protein A-Sepharose 4B (Zymed Laboratories Inc.). Immunoprecipitated proteins or total lysates were subjected to 12% SDS-polyacrylamide electrophoresis and immunoblotted with monoclonal antibodies (mAb) to HA (Boeringer Mannheim) or Flag (Kodak).
Apoptosis Assays: 5×10^5 293T cells were co-transfected with 0.2 μg of pcDNA3-β-gal plus each expression plasmid in triplicate by the calcium phosphate method as reported [N. Inohara et al., Proc. Natl. Acad. Sci. U.S.A. 94:10717-10722 (1997)]. In some experiments, 20 μM of the caspase inhibitor zVAD-fmk (Enzyme Systems Products) or 12.5 μl of medium from […] cells producing Fas ligand (Immunex Corporation, Seattle, Wash.) was added at 8 hrs after transfection. At 18 or 24 hours after transfection, cells were fixed, stained for β-galactosidase as described [N. Inohara et al., Proc. Natl Acad. Sci. U.S.A. 94:10717-10722 (1997)] and assayed for morphological features of apoptosis. At least 300 hundred blue-staining cells were counted. BJAB apoptosis induced by anti-Apol mAb was determined by flow cytometric analysis of nuclei stained with propidium iodide as described [R. Merino et al., J. Immunol. 155:3830-3838 (1995)]. Statistical significance was determined by one-way ANOVA followed by Student-Neuman-Keuls post-doc comparisons.

293T cells [3] = assay: β-galactosidase apoptosis assay, ARC co-transfection; format: cell-based, human
Description: Briefly, 2 μg of pcDNA3 or pcDNA3-ARC-Flag or -HA was co-transfected with 3 μg of pcDNA3 or caspase expression plasmids. Total amount of transfected plasmid DNA was always 5 μg. 293T cells were harvested after 22 hr and lysed with 0.2% NP-40 isotonic lysis buffer [Z. N. Oltvai et al., Cell 74:609-619 (1993)]. For immunoprecipitation, […] of soluble protein was incubated with 10 μg/ml of polyclonal anti-Flag, monoclonal anti-AU1 or polyclonal anti-HA antibody for 2 hr at 4° C. and tagged proteins were immunoprecipitated with Protein A-Sepharose 4B (Zymed Laboratories Inc., San Francisco, Calif.). Immunoprecipitates were subjected to 12% SDS-polyacrylamide electrophoresis and immunoblotted with anti-Flag, anti-AU1 or anti-HA antibodies. β-galactosidase apoptosis assay and Caspase-8 enzymatic assay: 5×10^5 293T cells were transfected with 0.3 μg of pcDNA3-β-gal plus each expression plasmid in triplicate. Cells were fixed 16 hrs after transfection, stained for β-galactosidase and assayed for morphological features of apoptosis [M. Muira et al., Cell 75:653-660 (1993)]. Statistical significance was determined by one-way ANOVA followed by Student-Neuman-Keuls post-doc comparisons. For caspase-8 enzymatic assay, 1.5×10^6 human 293T cells were co-transfected with pcDNA3, pcDNA3-ARC-Flag, pcDNA3-caspase-8 and pcDNA3-caspase-8-mt by a calcium phosphate method. Total amount of transfected plasmid DNA was always 2.5 μg. 293T cells were harvested 18hr after transfection and lysed with 0.2% NP-40 isotonic lysis buffer. Tagged proteins were immunoprecipitated and caspase activity was measured as described [N. Inohara et al., Proc. Natl. Acad. Sci. USA 94:10717-10722 (1997)].

[4] = target: T1, Flag-tagged RICK (RIP-like interacting CLARP kinase), pcDNA3-Flag-RICK (human, UniProt O43353 11-540, limits assumed); assay: anti-Flag immunoprecipitation from co-transfected 293T cells, anti-HA immunoblot
T1 construct: Entire open reading frame of RICK, expressed in 293T cells; also called CIPERK; Flag-CIPERK; not shown: N-terminal Flag tag
T1 sequence (O43353 other isoform, or with tags, fused parts or gaps limits assumed): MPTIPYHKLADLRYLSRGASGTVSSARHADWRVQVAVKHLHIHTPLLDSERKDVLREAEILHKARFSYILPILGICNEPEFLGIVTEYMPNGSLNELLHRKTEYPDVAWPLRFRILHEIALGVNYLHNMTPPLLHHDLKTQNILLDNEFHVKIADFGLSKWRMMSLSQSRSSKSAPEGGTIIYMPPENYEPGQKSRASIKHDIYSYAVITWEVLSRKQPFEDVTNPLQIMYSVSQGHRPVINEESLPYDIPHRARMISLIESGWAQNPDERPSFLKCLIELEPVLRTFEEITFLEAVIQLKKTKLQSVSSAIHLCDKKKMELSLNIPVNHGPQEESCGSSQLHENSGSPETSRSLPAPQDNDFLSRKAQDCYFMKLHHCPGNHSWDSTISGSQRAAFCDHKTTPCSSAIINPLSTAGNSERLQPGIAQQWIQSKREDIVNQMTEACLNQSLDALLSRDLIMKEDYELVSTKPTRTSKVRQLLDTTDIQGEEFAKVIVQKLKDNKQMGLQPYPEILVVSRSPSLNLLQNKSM

COC(=O)CC[C@H](NC(=O)[C@H](CC(=O)OC)NC(=O)OCc1ccccc1)C(=O)N[C@H](C(=O)N[C@@H](CC(=O)OC)C(=O)CF)C(C)C [zDEVD-fmk, benzyloxycarbonyl-Asp-Glu-Val-Asp-(OMe)-fluoromethylketone, reference compound]
killing activity of CIDE-A in presence of caspase inhibitors (293T cells [1]): unaffected

COC(=O)CC(NC(=O)C(C)NC(=O)C(NC(=O)OCc1ccccc1)C(C)C)C(=O)CF (stereo not drawn) [zVAD-fmk, benzyloxycarbonyl-Val-Ala-Asp-(OMe)-fluoromethylketone, reference compound] (Cbz-Val-Ala-Asp(OMe)-CH2F; configuration not given here)
caspase-8-induced apoptosis potentiated by RICK (293T cells [2]): inhibited | apoptosis induced by caspase-8 (293T cells [1]; 293T cells, control experiment, same concentration (20 μM)): inhibited | killing activity of CIDE-A in presence of caspase inhibitors (293T cells [1]; 293T cells, peptide inhibitors 20 μM added at 8 hr after transfection, CrmA by plasmid): unaffected

B1: baculovirus p35: broad-based caspase inhibitor protein of baculovirus, expressed from plasmid (protein, UniProt P08160 1-299, looked up)
Early 35 kDa protein: MCVIFPVEIDVSQTIIRDCQVDKQTRELVYINKIMNTQLTKPVLMMFNISGPIRSVTRKNNNLRDRIKSKVDEQFDQLERDYSDQMDGFHDSIKYFKDEHYSVSCQNGSVLKSKFAKILKSHDYTDKKSIEAYEKYCLPKLVDERNDYYVAVCVLKPGFENGSNQVLSFEYNPIGNKVIVPFAHEINDTGLYEYDVVAYVDSVQFDGEQFEEFVQSLILPSSFKNSEKVLYYNEASKNKSMIYKALEFTTESSWGKSEKYNWKIFCNGFIYDKKSKVLYVKLHNVTSALNKNVILNTIK
caspase-8-induced apoptosis potentiated by RICK (293T cells [2]): inhibited

B2: truncated form of ARC: truncated form of ARC that expressed the CARD domain (amino acid 1-106) (protein, UniProt O60936 1-106, looked up, fragment)
chain: MGNAQERPSETIDRERKRLVETLQADSGLLLDALLARGVLTGPEYEALDALPDAERRVRRLLLLVQGKGEAACQELLRCAQRTAGAPDPAWDWQHVGPGYRDRSYD
ability to suppress apoptosis induced by caspase-4, compared with full length ARC (293T cells [3]): no significant difference | ability to suppress apoptosis induced by caspase-8, compared with full length ARC (293T cells [3]): no significant difference

B3: CIDE-A (1-107): CIDE-A mutant containing the N-terminal half with homology to DFF45 (protein, UniProt O70302 1-107, looked up, fragment)
chain: METARDYAGALIRPLTFMGLQTKKVLLTPLIHPARPFRVSNHDRSSRRGVMASSLQELISKTLDVLVITTGLVTLVLEEDGTVVDTEEFFQTLRDNTHFMILEKGQK
induction of apoptosis (killing) of 293T cells by expression (293T cells [1]; 293T cells): did not | inhibition of CIDE-A-induced apoptosis by DFF45 (293T cells [1]; 293T cells, co-expression): antagonized

B4: deletion mutant missing the C-terminal 165 amino acids: RICK deletion mutant missing the C-terminal 165 amino acids that span the CARD domain (protein, UniProt O43353 1-365, looked up, fragment)
chain: MNGEAICSALPTIPYHKLADLRYLSRGASGTVSSARHADWRVQVAVKHLHIHTPLLDSERKDVLREAEILHKARFSYILPILGICNEPEFLGIVTEYMPNGSLNELLHRKTEYPDVAWPLRFRILHEIALGVNYLHNMTPPLLHHDLKTQNILLDNEFHVKIADFGLSKWRMMSLSQSRSSKSAPEGGTIIYMPPENYEPGQKSRASIKHDIYSYAVITWEVLSRKQPFEDVTNPLQIMYSVSQGHRPVINEESLPYDIPHRARMISLIESGWAQNPDERPSFLKCLIELEPVLRTFEEITFLEAVIQLKKTKLQSVSSAIHLCDKKKMELSLNIPVNHGPQEESCGSSQLHENSGSPETSRSLP
apoptosis of 293T cells induced by Fas, Fas plus FasL or caspase-8 (293T cells [2]; co-expression with RICK deletion mutants): did not enhance apoptosis

B5: human caspase-2, epitope-tagged (enzyme, UniProt P42575 18-452, looked up)
chain: MAADRGRRILGVCGMHPHHQETLKKNRVVLAKQLLLSELLEHLLEKDIITLEMRELIQAKVGSFSQNVELLNLLPKRGPQAFDAFCEALRETKQGHLEDMLLTTLSGLQHVLPPLSCDYDLSLPFPVCESCPLYKKLRLSTDTVEHSLDNKDGPVCLQVKPCTPEFYQTHFQLAYRLQSRPRGLALVLSNVHFTGEKELEFRSGGDVDHSTLVTLFKLLGYDVHVLCDQTAQEMQEKLQNFAQLPAHRVTDSCIVALLSHGVEGAIYGVDGKLLQLQEVFQLFDNANCPSLQNKPKMFFIQACRGDETDRGVDQQDGKNHAGSPGCEESDAGKEKLPKMRLPTRSDMICGYACLKGTAAMRNTKRGSWYIEALAQVFSERACDMHVADMLVKVNALIKDREGYAPGTEFHRCKEMSEYCSTLCRHLYLFPGHPPT
notes: also called AU1-tagged caspase-2; not shown: lette
binding result [4]: no binding

B6: caspase-3, epitope-tagged (enzyme, UniProt P42574 1-277, looked up)
chain: MENTENSVDSKSIKNLEPKIIHGSESMDSGISLDNSYKMDYPEMGLCIIINNKNFHKSTGMTSRSGTDVDAANLRETFRNLKYEVRNKNDLTREEIVELMRDVSKEDHSKRSSFVCVLLSHGEEGIIFGTNGPVDLKKITNFFRGDRCRSLTGKPKLFIIQACRGTELDCGIETDSGVDDDMACHKIPVEADFLYAYSTAPGYYSWRNSKDGSWFIQSLCAMLKQYADKLEFMHILTRVNRKVATEFESFSFDATFHAKKQIPCIVSMLTKELYFYH
notes: also called pcDNA3-caspase-3-Flag; not shown: position and
binding result [4]: no binding

B7: CIDE-A (108-200): CIDE-A mutant containing the C-terminal half (protein, UniProt O70302 108-200, looked up, fragment)
chain: WTPGSKYVPVCKQPKKSGIARVTFDLYRLNPKDFLGCLNVKATMYEMYSVSYDIRCTSFKAVLRNLLRFMSYAAQMTGQFLVYAGTYMLRVLG
induction of apoptosis (killing) of 293T cells by expression (293T cells [1]; 293T cells): capable of inducing apoptosis | killing activity compared with wild-type CIDE-A (293T cells [1]; 293T cells): greater

— patent publication US6348573B1, “Compositions and methods for identifying apoptosis signaling pathway inhibitors and activators” (The Regents of the University of Michigan, priority 1998, dated 2002)
